Patent publication US9067983B2, “Anti-inflammatory antibodies and uses therefor” (DecImmune Therapeutics, Inc., priority 2009, dated 2015)

Assays:
[1] = target: N2 peptide (N2 region of non-muscle myosin II heavy chain) (Mus musculus, UniProt Q61879); experiment: binding of hybridoma antibodies to the N2 peptide in vitro
Procedure: (§1) A panel of mouse hybridomas were prepared to identify the N2 region of non-muscle myosin II heavy chain. Thus, mice were immunized with the N2 peptide (Ac-LMKNMDPLNDNV (SEQ ID NO: 33)) coupled to a carrier protein (KLH). This region (N2) is highly conserved and identical in mouse and man. […] 12A6 is a IgG2b isotype. Its VH most closely matches the germ line gene 3609.11.169 sequence paired with DH: DSP2/DFL16.1 and its light chain is a V kappa 8-27 with JK1. 21G6 is an IgG1 isotype with its VH matching J558.35; DH: DSP2.6/DSP2.4/DSP2.3 and JH: JH3. Its light chain is V kappa hf24 and JK4.

N2 self-peptide = experiment: binding of anti-N2 antibody in vivo in heart after LAD occlusion and reperfusion (confocal microscopy); parameters: species or system mouse; conditions: B6 mice
Procedure: Specificity of the anti-N2 antibody. B6 mice were injected i.v. with fluorescently-labeled anti-N2 antibody (12A6) and anti-CD31 antibody prior to 60 min LAD occlusion and 30 min reperfusion. Following treatment, hearts were collected, fixed, and analyzed by confocal microscopy. The area at risk (left ventricle) was compared with the non-risk area (right ventricle). Quantification of the individual antibody staining as well as the merged images both in the area at risk and non-risk area is shown in FIG. 5.

B6 mice = experiment: murine myocardial infarction model (1 h LAD occlusion, 24 h reperfusion); assay type: in vivo, mouse; conditions: pretreatment with 100 ugs of Fab'2 fragment (Fc removed)
Procedure: as §1
B6 mice were subjected to 1 h LAD occlusion followed by 24 h reperfusion. […] Following reperfusion, both serum troponin-I levels (A) and mouse IgM deposition (B) were analyzed and statistical significance for each was evaluated by Student's t test (FIG. 3).
[…] Serum troponin-I levels were measured after 24 h reperfusion.

B1: 21G6: murine anti-N2 IgG1 produced by hybridoma PTA-9393; VH SEQ ID NO: 14, VL SEQ ID NO: 20 (antibody, listed as Mus sp., V domains shown)
VH: QVQLQESGAELVKPGASVKLSCKASGYTFTSYYMYWVKQRPGQGLEWIGGINPSNGGTNFNEKFKSKATLTVDKSSSTAYMQLSSLTSEDSAVYYCTRWGYDREWFAYWGQGTLVTVSA
VL: DIVMTQAAPSVPVTPGESVSISCRSSKSLLHSNGNTYLYWFLQRPGQSPQVLIYRMSNLASGVPDRFSGSGSGTAFTLRISRVEAEDVGVYYCMQHLEYPFTFGSGTKLEIKR
binding to the N2 peptide in vitro [1]: bind the N2 peptide | binding to the N2 self-peptide in vivo (N2 self-peptide): bind the N2 peptide | ischemia reperfusion injury (B6 mice): blocks ischemia reperfusion injury
